Patent US20230138315A1 (JIANGSU HENGRUI MEDICINE, published 2023)

Biological target: T1, rat ANGPTL3(17-455)-His (rat, biotin-labelled in the ELISA and HTRF assays (sites not given))
T1 construct: also called full-length rat ANGPTL3
T1 chain: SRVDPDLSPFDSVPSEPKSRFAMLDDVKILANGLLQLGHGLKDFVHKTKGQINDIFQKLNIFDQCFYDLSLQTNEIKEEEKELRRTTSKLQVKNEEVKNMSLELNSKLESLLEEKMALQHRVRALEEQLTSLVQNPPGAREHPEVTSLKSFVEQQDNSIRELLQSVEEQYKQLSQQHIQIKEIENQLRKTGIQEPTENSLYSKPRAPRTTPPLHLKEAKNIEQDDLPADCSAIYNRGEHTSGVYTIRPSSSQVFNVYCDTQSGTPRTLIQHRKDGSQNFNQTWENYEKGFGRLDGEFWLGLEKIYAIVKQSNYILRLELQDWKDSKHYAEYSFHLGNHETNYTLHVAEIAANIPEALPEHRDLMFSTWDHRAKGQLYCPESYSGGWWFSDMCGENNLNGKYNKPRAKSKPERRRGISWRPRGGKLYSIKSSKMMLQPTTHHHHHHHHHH
Assay: HTRF; biotin-labelled antigen with Streptavidin-Tb cryptate

EC50: 0.362 nM
B1: P8BG (antibody, human IgG4 S228P, kappa, V domains shown)
VH: QVQLVQSGAEVKKPGASVKVSCKASGYTFTSYDINWVRQAPGQGLEWVGLINPREDSTSYAQKFQGRVTMTRDTSTSTMYMELSSLRSEDTAVYFCARDLGSIREVLYYGMDVWGQGTTVTVSS
VL: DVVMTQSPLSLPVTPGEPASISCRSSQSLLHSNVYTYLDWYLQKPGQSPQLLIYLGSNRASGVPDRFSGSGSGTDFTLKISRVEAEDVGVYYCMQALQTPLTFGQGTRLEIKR
notes: also called anti-ANGPTL3 antibody P8BG; P8B (variable regions)
